Experimental findings from the RNAGym collection of RNA variant scans (doi:10.7554/elife.90254) are described below.

B1: OR4K15 (parent)
chain: GUUAACGGUCAUAGGCCAUGGAAACUAGGAGCACCAUUUCGCUGCCAGUGAAGAAAUGAACAAAGAAAAUCUGGGCCAGGCAGGCAUCAAAAGAAAUAGUCUUGCGCUCAACCAGAAAGUCUGUAAUCAUUUUAAGGGUA

In the data set the parent is B1. As to the kind of experiment: self-cleavage, relative activity (ratio to wild type); higher = more cleavage; in vitro, sequencing; the parent is a self-cleaving ribozyme.
Regarding G137A, the self-cleavage was found to be 1.12.

Regarding G137U, the self-cleavage is 2.05. With G137C the figure was 1.82; with G138A, 0.93; with G138C, 1.73. With G138U the figure was 1.69; with A135G G137A, 0.09. With U139C A140G the figure was 1.57; with A135G A140G, 0.95. On to A135U, for which the self-cleavage stood at 1.47.

Regarding G138A A140U, the self-cleavage was found to be 1.08. Then U139G A140U, with 1.51.
